These results are taken from patent publication US20250136718A1 (MABWELL THERAPEUTICS, published 2025).

Read-outs that look alike come from different tables or passages of the source.

The target in experiment [1] is T1, cynomolgus monkey TMPRSS6 expressed on HEK293T cells, CynoTMPRSS6-(His)6.
T1 chain: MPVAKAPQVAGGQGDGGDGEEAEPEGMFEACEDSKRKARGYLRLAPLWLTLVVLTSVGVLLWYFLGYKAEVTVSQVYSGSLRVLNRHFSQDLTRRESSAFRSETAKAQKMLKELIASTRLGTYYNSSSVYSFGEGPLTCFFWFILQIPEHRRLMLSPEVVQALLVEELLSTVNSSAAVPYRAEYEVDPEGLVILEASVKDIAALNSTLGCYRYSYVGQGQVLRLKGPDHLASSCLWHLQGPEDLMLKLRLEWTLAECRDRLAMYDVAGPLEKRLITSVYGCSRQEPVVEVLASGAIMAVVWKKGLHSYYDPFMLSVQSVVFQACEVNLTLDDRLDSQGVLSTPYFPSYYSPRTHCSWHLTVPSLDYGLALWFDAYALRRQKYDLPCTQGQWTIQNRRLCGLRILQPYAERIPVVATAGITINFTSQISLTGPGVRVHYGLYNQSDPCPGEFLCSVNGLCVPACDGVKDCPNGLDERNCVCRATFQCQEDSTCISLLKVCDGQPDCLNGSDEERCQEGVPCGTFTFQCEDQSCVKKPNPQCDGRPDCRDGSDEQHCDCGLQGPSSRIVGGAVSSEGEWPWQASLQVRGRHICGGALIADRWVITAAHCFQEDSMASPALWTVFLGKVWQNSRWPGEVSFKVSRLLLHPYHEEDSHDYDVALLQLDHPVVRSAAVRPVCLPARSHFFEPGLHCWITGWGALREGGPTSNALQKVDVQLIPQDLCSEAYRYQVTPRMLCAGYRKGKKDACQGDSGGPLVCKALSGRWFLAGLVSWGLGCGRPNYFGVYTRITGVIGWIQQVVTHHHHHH
The experiment can be described thus: cell surface ELISA.

The target in experiment [2] is T2, cynomolgus monkey TMPRSS6 expressed on HEK293T cells, CynoTMPRSS6-(His)6 (cynomolgus monkey, UniProt Q8IU80 10-811 (human entry)).
T2 chain: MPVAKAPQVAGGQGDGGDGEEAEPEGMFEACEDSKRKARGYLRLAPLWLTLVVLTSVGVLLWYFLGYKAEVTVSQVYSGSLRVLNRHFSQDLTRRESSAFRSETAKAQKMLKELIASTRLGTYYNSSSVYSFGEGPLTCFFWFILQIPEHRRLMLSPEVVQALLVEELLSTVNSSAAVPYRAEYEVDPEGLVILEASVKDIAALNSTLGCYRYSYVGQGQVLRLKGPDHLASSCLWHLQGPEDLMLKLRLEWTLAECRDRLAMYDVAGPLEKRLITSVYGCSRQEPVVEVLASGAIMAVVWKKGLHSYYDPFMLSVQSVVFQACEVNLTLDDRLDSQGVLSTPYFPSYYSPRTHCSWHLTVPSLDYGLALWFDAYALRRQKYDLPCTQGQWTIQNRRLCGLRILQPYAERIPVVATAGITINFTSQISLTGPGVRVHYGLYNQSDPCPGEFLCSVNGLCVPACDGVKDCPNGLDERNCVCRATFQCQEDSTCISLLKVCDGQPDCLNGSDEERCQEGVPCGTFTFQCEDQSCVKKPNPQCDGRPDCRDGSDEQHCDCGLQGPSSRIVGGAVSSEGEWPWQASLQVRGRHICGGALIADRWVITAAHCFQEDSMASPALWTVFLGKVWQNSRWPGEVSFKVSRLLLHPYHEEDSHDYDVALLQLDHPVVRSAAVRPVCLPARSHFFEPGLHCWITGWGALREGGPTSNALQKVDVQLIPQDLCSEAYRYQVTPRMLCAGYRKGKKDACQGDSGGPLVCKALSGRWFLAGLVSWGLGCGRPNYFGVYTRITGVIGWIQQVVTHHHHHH
The experiment can be described thus: summary of Example 4 (cell surface ELISA). As for the experimental part:
HEK293T cells stably expressing mouse TMPRSS6 (generated by LakePharma Inc as described above, FIGS. 4J, 4L, 4N, 4P, 4R, 4T) or cynomolgus monkey (generated in house as described above, FIGS. 4K, 4M, 4O, 4Q, 4S, 4U) were fixed with methanol (100%), and washed with dPBS (Dulbecco's phosphate-buffered saline, Corning Cellgro) before incubation with various concentrations of anti-TMPRSS6 antibodies and their humanized variants diluted in BSA medium (DMEM+1% Pen/Strep+10 mM HEPES+1 mg/ml BSA (Sigma-Aldrich)). Purified mouse IgG (FIGS. 4J-4O) or Human IgG1 (FIGS. 4P-4U) was used as a control. After incubation, cells were washed with BSA medium and then incubated with goat anti-mouse (Invitrogen, FIGS. 4J-4O) or anti-human (Millipore, FIGS. 4P-4U) IgG conjugated with HRP as a 2° antibody. Finally, cells were washed with dPBS to remove unbound antibody and color developed with ELISA liquid substrate (Sigma-Aldrich), followed by stopping the reaction with addition of the same volume of […] 1M H₂SO₄. Bound antibody was measured by absorbance at OD₄₅₀ₙₘ.
On the technique in general: An ELISA detects its analyte on a solid surface through an enzyme-linked reagent.

Experiment [3] addresses T2, cynomolgus monkey TMPRSS6 expressed on …. The experiment can be described thus: summary of Example 4 (FACS, cell surface ELISA). As for the experimental part: Selected anti-TMPRSS6 antibodies were tested to determine whether any are capable of binding to TMPRSS6 from mouse and/or cynomolgus monkey. HEK293T cells stably expressing human TMPRSS6 (HuTMPRSS6-(His)₆) (generated by LakePharma Inc as described above), HEK293T cells stably expressing mouse TMPRSS6 (MoTMPRSS6-(His)₆) (SEQ ID NO: 98) (generated by LakePharma Inc as described above) and HEK293T cells transiently expressing cynomolgus monkey TMPRSS6 (CynoTMPRSS6-(His)₆) (SEQ ID NO: 99) (generated in house) were collected. HEK293T cells stably expressing human TMPRSS6 were used as a positive control and HEK293T cells were used as a negative control (as described above). Cells were blocked with dPBS+3% BSA before incubation with anti-TMPRSS6 antibodies diluted in dPBS+3% BSA. After incubation, cells were washed with dPBS and followed by another incubation with goat anti-mouse IgG conjugated with AlexaFluor-488 as a 2° antibody (Invitrogen). At last, cells were washed with dPBS to remove unbound antibody, re-suspended with dPBS+1 mM EDTA, and then subjected to FACS analysis using a NOVOCYTE® Flow Cytometer (ACEA Biosciences, Inc., San Diego CA). Bound antibody was determined by excitation at 488 nm and measurement of emission (FITC-A) at 530 nm. Results for these assays are shown in histogram plots in FIGS. 4A-4I.
HEK293T cells stably expressing mouse TMPRSS6 (generated by LakePharma Inc as described above, FIGS. 4J, 4L, 4N, 4P, 4R, 4T) or cynomolgus monkey (generated in house as described above, FIGS. 4K, 4M, 4O, 4Q, 4S, 4U) were fixed with methanol (100%), and washed with dPBS (Dulbecco's phosphate-buffered saline, Corning Cellgro) before incubation with various concentrations of anti-TMPRSS6 antibodies and their humanized variants diluted in BSA medium (DMEM+1% Pen/Strep+10 mM HEPES+1 mg/ml BSA (Sigma-Aldrich)). Purified mouse IgG (FIGS. 4J-4O) or Human IgG1 (FIGS. 4P-4U) was used as a control.

For experiment [4], the target named is T1, cynomolgus monkey TMPRSS6 expressed on …. The experiment can be described thus: cell surface ELISA.

B1: humanized anti-TMPRSS6 antibody variant hzMWTx-001 Var (antibody, human IgG1, kappa, N297A, V domains shown)
VH: EVQLVQSGAEVKKPGASVKVSCKASGYTFTSYWITWVRQAPGQRLEWIGNIYPGSGSTYYNEKFKSKATITRDTSSRTAYMELSSLRSEDTAVYYCAPYDADYAMDYWGQGTLVTVSS
VL: DIQMTQSPSSLSASVGDRVTITCKASQDISNYLSWFQQKPGKAPKLLIYRANRLVEGVPSRFSGSGSGTDFTLTISSLQPEDFATYFCLQYDEFPLTFGGGTKVEIKR
notes: Human IgG1 / kappa
As a reminder, the EC50 is the midpoint of the concentration-response curve. B1 displayed a concentration for a half-maximal effect (EC50) in experiment [1] of 0.003 mg/L. Moreover, in experiment [2], the binding result was “binds”.

B2: humanized anti-TMPRSS6 antibody variant hzMWTx-003 Var (antibody, human IgG1, kappa, L234A L235A, V domains shown)
VH: QVQLVQSGAEVKKPGASVKVSCKASGFNIEDYYMHWVRQAPGQRLEWMGRIDPEDAETTYSPKFQGRVTIIPDTSANTAYMELSSLRSEDTAVYYCARSIYLDPMDYWGQGTLVTVSS
VL: DIQMTQSPKSLSASVGDRVTITCRASQDVTTALAWYQQKPGQSPKLLIYWATTRHSGVPSRFSGSGSGTDFTLTISSLQPEDFATYYCQQHYSTPYTFGQGTKLEIKR
notes: Human IgG1 / kappa
B2 yielded an EC50 in experiment [1] of 0.03 mg/L. The binding result in experiment [2] is on record as “binds”.

B3: humanized anti-TMPRSS6 antibody variant hzMWTx-002 Var (antibody, human IgG1, kappa, N297A, V domains shown)
VH: EVQLVQSGAEVKKPGASVKVSCKASGFNIKDYYIHWVRQATGQGLEWMGRIDPEDAESEYAPKFQGRVTITADTSTDTAYMELSSLRSEDTAVYYCTRGDSMMVTYFDYWGQGTLVTVSS
VL: DIQMTQSPSSLSASVGDRVTITCKASQDVSTAVAWYQQKPGKAPKLLIYWAFTRHTGVPSRFSGSGSGTDYALTISSLQPEDFATYYCQQHYRSPWTFGGGTKVEIKR
notes: Human IgG1 / kappa
In the case of B3, in experiment [1], the EC50 stood at 0.06 mg/L. Also, the binding result in experiment [2] is reported as “binds”.

B4: MWTx-003 anti-TMPRSS6 monoclonal antibody (antibody, mouse IgG2b, kappa, V domains shown)
VH: EVQLQQSGAELVKPGASVKLSCTASGFNIEDYYIHWVKERTEQGLEWIGRIDPEDGETTYAPQFQGKATIIPDTSSNTAYMQLSSLTSEDAAVYYCARSIYLDPMDYWGQGTSVTVSS
VL: DIVMTQSHKFMSTSVGDRVSITCKASQDVTTAVAWYQQKPGQSPKILIYWATTRHTGVPDRFTGSISGTTYILTISSVQAEDLALYYCQQHYSTPYTFGGGTKLEIKR
notes: Mouse monoclonal antibody from hybridoma (ATCC PTA-126761); The recombinant version r4K12B has the same HC and LC; also called r4K12B; recombinant MWTx-003
In the case of B4, the binding result in experiment [3] was “binds”. The response in experiment [4] was half-maximal at 0.09 mg/L (EC50).

B5: MWTx-002 anti-TMPRSS6 monoclonal antibody (antibody, mouse IgG2b, kappa, V domains shown)
VH: EVQLQQSGAELVKPGASVKLSCTASGFNIKDYYIHWVKERTEQGLEWFGRIDPEDGESEYAPKFQGKATLTADTSSNTAYLQLSSLTSEDTAVYYCTRGDSMMVTYFDYWGQGTTLTVSS
VL: DIVMTQSHKFMSTSVGDRVSITCKASQDVSTAVAWYQQKPGQSPKLLIYWAFTRHTGVPDRFTSTGSGTDYALTISSVQAEDLALYYCQQHYRSPWTFGGGTKLEIKR
notes: Mouse monoclonal antibody from hybridoma (ATCC PTA-126760)
For the molecule B5, the binding result in experiment [3] was “binds”. The molecule further gave a concentration for a half-maximal effect (EC50) in experiment [4] of 0.06 mg/L.

B6: MWTx-001 anti-TMPRSS6 monoclonal antibody (antibody, mouse IgG2a, kappa, V domains shown)
VH: QVQLQQPGAELAKPGASVKMSCKASGYTFTSYWITWVKQRPGQDLEWIGNIYPGSGSTYYNEKFKSKATLTVDTSSRTAYMQLSSLTSADSAVYYCAPYDSDYAMDYWGQGTSVTVSS
VL: DIKMTQSPSSMYASLGERVTITCKASQDINNYLSWFQQKPGKSPKTLIYRANRLVDGVPSRVSGSGSGQDYSLTISSLEYEDVGIYFCLQYDEFPLTFGAGTKLELKR
notes: Mouse monoclonal antibody from hybridoma (ATCC PTA-126759)
For B6, in experiment [3], the binding result is on record as “binds”. The molecule further came in with an EC50 in experiment [4] of 0.1 mg/L.
